Values joined by “and” are separate entries in the source; they are usually repeats but may differ in a detail not shown here. Identical values can stand only once. Like-named read-outs stand apart in the source and are kept apart here.

Kd data for two substances are collected here from publication PMC2819637.

For assay [1], the target named is PKR (Homo sapiens) (UniProt P19525). Particulars: cited from earlier work.
The target is the same in assay [2]. Nature of the assay: analytical ultracentrifugation. Particulars: cited from earlier work.
In assay [3] the target is phosphorylated monomeric PKR (pPKRm) (human) (UniProt P19525). The assay is described as follows: AUC.

What is called Kd is the free concentration of one partner at which half of the binding sites on the other are occupied at equilibrium, for simple one-to-one binding. On to PKR (from UniProt P19525), for which the Kd with PKR (Homo sapiens) [1] is 500 µM and 450 µM; in the assay with PKR (Homo sapiens) [2] it was 0.95 µM.

On to “phosphorylated monomeric PKR (pPKRm) (from UniProt P19525 1-551) (enzyme)”, for which, in assay [3], the Kd is 473 µM.
